In test [1] the target is VEEV capsid (of VEEV TC-83, in infected Vero cells) (Venezuelan equine encephalitis virus, strain TC-83) (UniProt P05674). The test can be described thus: confocal microscopy, line scan of z-stack, VEEV TC-83 infected Vero cells, 16 h.
Test [2] concerns the target VEEV E2 (of VEEV TC-83, in infected Vero cells) (Venezuelan equine encephalitis virus, strain TC-83) (UniProt P05674). The test is described as above.

For the substance PKCδ (endogenous, Vero cells), the Pearson's correlation (co-localization) in test [1] was 0.771.

In test [2], PKCδ (endogenous, Vero cells) (enzyme) displayed a Pearson's correlation (co-localization) of 0.581.

For the origin of these results see patent US20200297834A1.
